Laboratory results as given in patent US20200231668A1 (INTRINSIC LIFESCIENCES, published 2020).

T1: recombinant human erythroferrone (ERFE) (human, UniProt Q4G0M1 29-354)
T1 construct: Secreted from transfected HEK293F cells and purified from the supernatant; also called human ERFE; hERFE
T1 sequence: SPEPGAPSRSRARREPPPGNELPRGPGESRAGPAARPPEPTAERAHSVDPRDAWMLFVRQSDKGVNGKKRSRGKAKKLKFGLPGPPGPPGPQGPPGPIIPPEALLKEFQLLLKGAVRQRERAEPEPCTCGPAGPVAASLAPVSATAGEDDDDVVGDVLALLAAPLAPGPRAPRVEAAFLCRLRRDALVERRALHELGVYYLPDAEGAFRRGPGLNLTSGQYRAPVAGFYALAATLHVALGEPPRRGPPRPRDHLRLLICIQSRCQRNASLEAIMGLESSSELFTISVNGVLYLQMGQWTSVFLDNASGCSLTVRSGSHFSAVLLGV


Key:
[1] = molecular target: T1, recombinant human erythroferrone (ERFE); assay: sandwich ELISA, biotinylated detection antibody; coating antibodies 7H4, 17A5, 4C1
[2] = molecular target: T1, recombinant human erythroferrone (ERFE); assay: sandwich ELISA, biotinylated detection antibody (also used as coating antibody); coating antibodies 7H4, 17A5, 4C1

| binding result [1] | binding result [2] | Binder |
| --- | --- | --- |
| binds |  | monoclonal antibody 9B12 (ATCC Accession Number PTA-123882) (antibody, mouse IgG1, kappa, V domains shown, Mouse IgG1 from hybridoma; Biotinylated when used as detection antibody) VH: QVQLQQSGPELVKPGASVRISCKASGYTFTSYYIHWVKQRPGQGLEWIAWIYPGNVNTEYNEKFKGKATLTADESSSTAYMQLSSLTSEDSAVFFCAREGITTNALDYWGQGTSVTVSS VL: DIQMTQTTSSLSASLGDRVTISCRASQDISNYLNWYQQKPDGTVKLLIYYTSRLYSGVPSRFSGNGSGSDYSLTISNLEQEDIATYFCQQGHTLWTFGGGTKLEIKR |
|  | binds | monoclonal antibody 17A5 (ATCC Accession Number PTA-123883) (antibody, mouse IgG1, kappa, V domains shown, Mouse IgG1 from hybridoma; Biotinylated when used as detection antibody) VH: QVQLQQPGSVLVRPGASVKLSCKASGYTFTSYWMHWAKQRPGQGLEWIGEIHPKSGDTNHNEKFKGKATLTVDTSSNTAYVDLSSLTSEDSAVYYCAREGITTVGFDLWGAGTTVTVSS VL: QIVLTQSPAIMSASPGQKVTLTCSASSSVSYMNWVQQKSGTSPKRWIYDTSKLASGVPARFSGSGSGTSYSLTISSVEAEDAATYYCQQWSSHPYTFGGGTKLEIKR |
